40 sequences from the nanobody polyreactivity screen of Harvey et al. (2022) can be followed below.

This series is described as follows: yeast display, Sf9 membrane polyspecificity reagent, FACS + sequencing; frameworks hold sequencing errors. In short, it runs like this: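 Genes from sorted yeast were amplified by colony PCR, read by MiSeq 2 × 250 sequencing and filtered on CDR length. These cells carried a synthetic nanobody library in Saccharomyces cerevisiae BJ5465 and were sorted by FACS into low and high (top ~1%) gates on anti-HA and streptavidin fluorescence. Polyreactivity is labelled according to the gate of origin.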
For the sequence “QVQLVESGGGLVQAGGSLRLSCAASGFTFVQYAMGWYRQAPGKERELVATISKSGGITYYADSVKGRFTISRDNAKNTVYLQMNSLKPEDNAVYYCAAAWYYSSRGFHATWGHDYWGQGTQVTVSS”, the “polyreactivity (PSR sort gate)” value was “low polyreactivity”.
For “QVQLVESGGGLVQAGGSLRLSCAASGFTFVRYAMGWYRQAPGKERELVAAISRGGGRTSYADSVKGRFTISRDNAKNTVYLQMNSLKPEDTAVYYCATGTYAAAQGTRYYYLGQGTQVTVSS” the value was “high polyreactivity”.
The result for “QVQLVESGGGLVQAGGSLRLSCAASGFTFVRYAMGWYTQAPGKERELDAAITRGGGSTYYADSVKGRFTISRDYAKNTVYLQMNSLKPEDTAVYYCAKGPGRPVSYEIPYKYNYWGQGTHVTVSS” reads “high polyreactivity”.
The result for “QVQLVESGGGLVQAGGSLRLSCAASGFTFVRYTMGWYRQAPGKERELVAAITSGGSTTYADSVKGRFTISRDNAKNTVYLQMNSLKPEDTAVYYCNAVFYLQYETGRELDYWGQGTQVTVSS” reads “high polyreactivity”.
In the case of “QVQLVESGGGLVQAGGSLRLSCAASGFTFVSNAMGWYRQAPGKEREMVADITSDGSTNYADSVKGRFTISRDNAKNTVSLQMNSLKPEDTAVYYCNADASYGFWSLLHYDYWGQATQVTVSS”, the “polyreactivity (PSR sort gate)” value is “low polyreactivity”.
For “QVQLVESGGGLVQAGGSLRLSCAASGFTFVSYTMGWYRQAPGKERELVAVITKRGGSTYYADSVKGRFTISRDNAKNTVYLQLNCLKPEDTAVYYCNAVQAYKSPSLPLAGGNYWGQGTQVTVSS” the value was “high polyreactivity”; for “QVQLVESGGGLVQAGGSLRLSCAASGFTFVYNAMGWYRQAPGKERELVAAITSGGNTYYADSVKGRFTISRDNAKNTVYLQMNSLKPEDTAVYYCAKRGYGRYYAYDYWGQGTQVTVSS”, “high polyreactivity”; for “QVQLVESGGGLVQAGGSLRLSCAASGFTFVYYDMGWYRQAPGKERELVAAISRSGGSTYYADSVKGRFTISRDNAQNTVYLQMNSLKPEDTAVYYCAAGKNYGSRLSYEYWGQGTQVTVSS”, “high polyreactivity”.
“QVQLVESGGGLVQAGGSLRLSCAASGFTFVYYVMGWYRQAPGKERELVAAITRRGGNTYYADSVKGRFTISRDNAKNTVYLQMNSLKPEDTAVYYCNAVLRYGHGPYQKGDYWGQGTQVTVSS”: the “polyreactivity (PSR sort gate)” value was “high polyreactivity”.
For “QVQLVESGGGLVQAGGSLRLSCAASGFTFWHYAMGWYRQAPGKERELVAAITWDGGSTYYADSVKGRFTISRDNAKNTFYLQMQSLKPEDNAVYYCAKLFGGTYYEYDYWGQGTQVTVSS” the value was “low polyreactivity”.
The result for “QVQLVESGGGLVQAGGSLRLSCAASGFTFWLYAMGWYRQATGKERELVAAIDWDGGTYYADSVKGRFTISRDNAKNTVYLQMNSLKPEDTAVYYCAARYRYYYTRYDYWGQGTQVTVSS” reads “high polyreactivity”.
Consider “QVQLVESGGGLVQAGGSLRLSCAASGFTFWRNAMGWYRQAPGKERELVAAISWRGGSTYYADSVKGRFTISRDNAKNTVYLQMNSLKPEDTAVYYCNALHWQSKELDYYWGQGTQVTVSS”, for which the “polyreactivity (PSR sort gate)” value is recorded as “high polyreactivity”.
“QVQLVESGGGLVQAGGSLRLSCAASGFTFWRYAMGWYIQAPGKERELVAAISYSGGRTYYADSVKGRFTISRDNAKNTVYLQMNSLKPEDTAVYYCAASRVTYGGPYRDDYDYWGQGTQVTVSS”: the “polyreactivity (PSR sort gate)” value is “high polyreactivity”.
For “QVQLVESGGGLVQAGGSLRLSCAASGFTFWRYAMGWYREAPGKERELVAAITGLGRTNYADSVKGRFTISRDNAKNTVYLQMNSLKPEDTADYYCNVVRVYRYDYWGQGTQVTVSS” the value was “high polyreactivity”; for “QVQLVESGGGLVQAGGSLRLSCAASGFTFWRYAMGWYRQAPGKEREFVAVISISSGTTYADSVKGRFTITRDNAKNTVYLQMNSLKPEDTAVYYCAAAIGVYYIEYRYLGTVEYWGQGTQVTVSS”, “low polyreactivity”; for “QVQLVESGGGLVQAGGSLRLSCAASGFTFWRYAMGWYRQAPGKERELVAAISRTGGRTYYADSVKGRFTISRDNAKNTVYLQMNSLKPEDTAVYYCAADWLYDYGEYYYWGQGTQVTVSS”, “high polyreactivity”.
The result for “QVQLVESGGGLVQAGGSLRLSCAASGFTFWRYAMGWYRQAPGKERELVAAITWSGGRTYYADSVKGRFTISRDNAKNTVYLQMNSLKPEDTAVYYCNVDAYGYRPYRYYYWGQGTQVTVSS” reads “high polyreactivity”; that for “QVQLVESGGGLVQAGGSLRLSCAASGFTFWTYAMGWYRQAPGKERELVAAIDSGGSTYYADSVKGRFTITRDNAKNTVYLQMNSLKPEDTAVYYCNAGPSVTSGYDYDYWGQGTQVTVSS”, “low polyreactivity”.
Regarding “QVQLVESGGGLVQAGGSLRLSCAASGFTFWYYAMGWYRQAPGKERELVAAISSGSSTNYADSVKGRFTISRDNPKNTVYLQMNSLKPEDTAVDYCAADKYPSSPYVGDVDYWGQGTQVTVSS”, the “polyreactivity (PSR sort gate)” value is “high polyreactivity”.
As for “QVQLVESGGGLVQAGGSLRLSCAASGFTFWYYAMGWYRQAPGKERELVAGIDSGGSTYYADSVKGRFTISRDNAKNTVYFQMNSLKPEETAVYYCAARPDQGLAYSPLPWYNYWGQGTQVTVSS”, the “polyreactivity (PSR sort gate)” value is given as “low polyreactivity”.
The result for “QVQLVESGGGLVQAGGSLRLSCAASGFTFWYYAMGWYRQAPGKERELVASISASGGRTNYADSVKGRFTISRDNAKNTVYLQMNSLKPEDTAVYYCAACRVRYSYGYPYYYWGQGTQVTVSS” reads “high polyreactivity”; that for “QVQLVESGGGLVQAGGSLRLSCAASGFTFWYYAMGWYRQAPGKERELVASISRTGGTTYYADSVKGRFTISRDNAKNTVYLQMNSLKPEDTAVYYCNARPKVYYREYDYWGQGTQVTVSS”, “high polyreactivity”; that for “QVQLVESGGGLVQAGGSLRLSCAASGFTFYAYAMGWYRQAPGKERELVAAISGSGGRTYYADSVKGRFTISRDNAKNTVYLQMNSLKPEDTAVYYCAADRPGGSYDYWGQGTQVTVSS”, “high polyreactivity”.
For “QVQLVESGGGLVQAGGSLRLSCAASGFTFYFYAMGWYRQAPGKERDLVAAINSGDSTYYADSVKGRFTISSDNEKNTVYLQMNSLKPEDTAVYYCSAAQFIQLRDYWGQGTQVTVSS” the value was “high polyreactivity”.
The result for “QVQLVESGGGLVQAGGSLRLSCAASGFTFYGYAMGWYRQAPGKEREFVADISSRDGSTYYADSVKGRFTISRDNAKNTVYLQMNSLKPEDTAVYYCAADSGQYKWSDYDYWGQGTQVTVSS” reads “low polyreactivity”.
Consider “QVQLVESGGGLVQAGGSLRLSCAASGFTFYGYAMGWYRQAPGKERELVAAISSSGGRTYYADSVKGRFTISRDNSKNTVYLQMNSLKPEDTAVYYCAADYTSRDYYYWGQGTQVTVSS”, for which the “polyreactivity (PSR sort gate)” value is reported as “high polyreactivity”.
The result for “QVQLVESGGGLVQAGGSLRLSCAASGFTFYGYAMGWYRQAPGKERELVADISYRGGSTYYADSVKGRFTISRDNAKNTVYLQMNRLKPEDTAVYYCAARATPTYYAGQREDYNYWGQGTQVTVSS” reads “high polyreactivity”; that for “QVQLVESGGGLVQAGGSLRLSCAASGFTFYHNAMGWYRPAPGKERELVAAITWDSGSTYYADSVKGRFTISRDNAKNTAYLQMNSLKPEDPAVYYCAADIASGYYWYDYWGQGTQVTVSS”, “low polyreactivity”.
For “QVQLVESGGGLVQAGGSLRLSCAASGFTFYHNTMGWYRQAPGKEREFVATINFIGGSTYYADSVKGRFTISRDNAKNTVYLQMNSLKPEDTAVYYCNARSRYLYFLRFDYWGQGTQVTVSS” the value was “high polyreactivity”.
The result for “QVQLVESGGGLVQAGGSLRLSCAASGFTFYHYAMGWSRQAPGKESELVATISKRGGSTYYADSVKGRFTISRDNAKNTVYLQMNSLKPQDTAVFYCAAKIYWSSLKMDYWGQGTQVTVSS” reads “high polyreactivity”; that for “QVQLVESGGGLVQAGGSLRLSCAASGFTFYIYAMGWYRQAPGKERELVAAISSGGGRTYYADSVKVRFTISRDNAKNTVYLQMTSLKPEDTAVYYCAARGRAFSYKNYGSDYWGQVTQVTVSS”, “high polyreactivity”.
In the case of “QVQLVESGGGLVQAGGSLRLSCAASGFTFYKKTMGWYRQAPGKERELVAAISSSGSSTYYADAVKGRVTISRDNAKNTVYLQMNSLKPEDSAVEYCAAGRFAYHDDYWGQGTQVTVSS”, the “polyreactivity (PSR sort gate)” value is “high polyreactivity”.
The result for “QVQLVESGGGLVQAGGSLRLSCAASGFTFYKNAMGWYRQAPGKERELVARITGRGGSTYYADSVKGRFTISRDNAKNTVYLQMNSLKPEDTAVYYCAVDGLVWRNRGFDYWGQGTQVTVSS” reads “high polyreactivity”.
For “QVQLVESGGGLVQAGGSLRLSCAASGFTFYKYAMGCYRQPPGKERELVAAITGRGGSTYYADSVKGRFTISRDNAKNTVYLQMNILKPEDTAVYYCAARTPSYEMDYWGQGTQVTVSS” the value was “high polyreactivity”; for “QVQLVESGGGLVQAGGSLRLSCAASGFTFYKYAMGWYRQAPGKERELVAAISYRGGRTYYADSVKGRFTISRDNAKNTVYLQMNSLKPEDTAVYYCAARGYVWNIGRYYWGQGTEVTVSS”, “high polyreactivity”.
For “QVQLVESGGGLVQAGGSLRLSCAASGFTFYKYTMGWYRQAPGKERELVAAIRSSGGRTYYADSVKGRFTISRDNAKNTVYLQMNSLKPEDTAVYYCNAVVDRLIFWQFDYWGQGTQVTVSS” the value was “high polyreactivity”; for “QVQLVESGGGLVQAGGSLRLSCAASGFTFYLNAMGWYRQAPGKERELVAAITGSGDDTYYADSVKGRFTISRDNAKNTVYLQMNSLKPEDTAVYYCAADVSYWYDYWGQGTQVTVSS”, “high polyreactivity”.
“QVQLVESGGGLVQAGGSLRLSCAASGFTFYNNAMGWYRPAPGKERELVAVITSNGGRTYYADSVKGRFTISRDNAKNTVYLQMNSVKPEDTAVYYCAKDYKALYLYHYRISGGDVDYWGQGTQVTVSS”: the “polyreactivity (PSR sort gate)” value is recorded as “low polyreactivity”.
In the case of “QVQLVESGGGLVQAGGSLRLSCAASGFTFYNYAMGWYRQAPGKERELVAAISWSGGSTHYADSVKGRFTISRDNAKNTVYLQMNSLKPEDTAVYYCAKFGVLGYYTYYYWGQGTQVTVSS”, the “polyreactivity (PSR sort gate)” value is “low polyreactivity”.
In the case of “QVQLVESGGGLVQAGGSLRLSCAASGFTFYNYAMGWYRQAPGKERELVAAITSSGTSTYYADSVKGRFTISRDNAKNTVYLQMNSLKPEDTAVYYCNAVSSYSYSYDYWGQGTQVTVSS”, the “polyreactivity (PSR sort gate)” value is reported as “low polyreactivity”.
